Test results taken from PMC6173638 (Cell, 2018).
Values belong to the molecule of their own block, whether it stands above or below them.

Key:
[1] = target: Bosea sp. Root381 GapR, wild type (Bosea sp. Root381); test: crystal structure
[2] = target: Bosea sp. Root381 GapR(L48M-I54M-L73M), selenomethionine substituted (Bosea sp. Root381); test: crystal structure
[3] = target: the molecule itself; test: SEC-MALS
[4] = target: the molecule itself; test: crystal structure
[5] = target: T1, GapR(11-89) WT (Caulobacter crescentus, UniProt B8H4R9 11-89); test: X-ray crystallography
T1 sequence: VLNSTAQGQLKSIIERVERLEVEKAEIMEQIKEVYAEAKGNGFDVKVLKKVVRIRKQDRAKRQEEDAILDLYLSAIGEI

[6] = target: T2, GapR(11-89) L83M SeMet (Caulobacter crescentus, UniProt B8H4R9 11-89, L83M); test: X-ray crystallography
T2 sequence: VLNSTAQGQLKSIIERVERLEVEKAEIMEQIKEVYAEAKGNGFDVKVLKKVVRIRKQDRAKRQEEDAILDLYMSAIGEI

stoichiometry N [1]: 4
Molecule: Bosea sp. Root381 GapR, wild type (natural protein)

stoichiometry N [2]: 2
Molecule: Bosea sp. Root381 GapR(L48M-I54M-L73M), selenomethionine substituted (natural protein)

B1: Caulobacter crescentus GapR, untagged (natural protein, UniProt B8H4R9 1-89, looked up)
chain: MADDAIPHTDVLNSTAQGQLKSIIERVERLEVEKAEIMEQIKEVYAEAKGNGFDVKVLKKVVRIRKQDRAKRQEEDAILDLYLSAIGEI
stoichiometry N [3]: 2

B2: C. crescentus GapR(11-89) L83M, selenomethionine substituted (domain or fragment, Caulobacter crescentus, UniProt B8H4R9 11-89, looked up)
chain: VLNSTAQGQLKSIIERVERLEVEKAEIMEQIKEVYAEAKGNGFDVKVLKKVVRIRKQDRAKRQEEDAILDLYMSAIGEI
modifications: selenomethionine substituted
stoichiometry N [4]: 4

B3: AT-rich crystallization 11-mer (dsDNA)
DNA 1: TTAAAATTAAA
DNA 2: TTTAATTTTAA
binding result [5]: binds
binding result [6]: binds
